IntAct's records for PubMed 20802513

B1: Focal adhesion kinase 1 (Gallus gallus (Chicken)), Q00944 (parent)
chain: MAAAYLDPNLNHTPSSSAKTHLGTGMERSPGAMERVLKVFHYFENSSEPTTWASIIRHGDATDVRGIIQKIVDCHKVKNVACYGLRLSHLQSEEVHWLHLDMGVSNVREKFELAHPPEEWKYELRIRYLPKGFLNQFTEDKPTLNFFYQQVKNDYMLEIADQVDQEIALKLGCLEIRRSYGEMRGNALEKKSNYEVLEKDVGLRRFFPKSLLDSVKAKTLRKLIQQTFRQFANLNREESILKFFEILSPVYRFDKECFKCALGSSWIISVELAIGPEEGISYLTDKGANPTHLADFNQVQTIQYSNSEDKDRKGMLQLKIAGAPEPLTVTAPSLTIAENMADLIDGYCRLVNGATQSFIIRPQKEGERALPSIPKLANNEKQGVRSHTVSVSETDDYAEIIDEEDTYTMPSTRDYEIQRERIELGRCIGEGQFGDVHQGIYMSPENPAMAVAIKTCKNCTSDSVREKFLQEALTMRQFDHPHIVKLIGVITENPVWIIMELCTLGELRSFLQVRKFSLDLASLILYAYQLSTALAYLESKRFVHRDIAARNVLVSATDCVKLGDFGLSRYMEDSTYYKASKGKLPIKWMAPESINFRRFTSASDVWMFGVCMWEILMHGVKPFQGVKNNDVIGRIENGERLPMPPNCPPTLYSLMTKCWAYDPSRRPRFTELKAQLSTILEEEKLQQEERMRMESRRQVTVSWDSGGSDEAPPKPSRPGYPSPRSSEGFYPSPQHMVQPNHYQVSGYSGSHGIPAMAGSIYPGQASLLDQTDSWNHRPQEVSAWQPNMEDSGTLDVRGMGQVLPTHLMEERLIRQQQEMEEDQRWLEKEERFLVMKPDVRLSRGSIEREDGGLQGPAGNQHIYQPVGKPDHAAPPKKPPRPGAPHLGSLASLNSPVDSYNEGVKIKPQEISPPPTANLDRSNDKVYENVTGLVKAVIEMSSKIQPAPPEEYVPMVKEVGLALRTLLATVDESLPVLPASTHREIEMAQKLLNSDLAELINKMKLAQQYVMTSLQQEYKKQMLTAAHALAVDAKNLLDVIDQARLKMISQSRPH

Variants of: B1
Conditions: with pgfrb_human PDGFRB

**Q.** For Y5F;Y194F, which “effect of a mutation on the interaction” value is on record?
**A.** disrupting interaction
